Assay results published in patent US20260242478A1 (published 2026).
Where two headings read alike, the source gives them in different places.

What was measured:
PSMA Fab [1] = target: T1, PSMA Fab; assay: competition ELISA; peptide 0-100 µM with 0.3 nM PSMA Fab on plate-captured biotinylated PSMA
T1 construct: also called 006 PSMA Fab; anti-PSMA Fab

PSMA Fab [2] = target: T1, PSMA Fab; assay: as above; remark: listed apart in the source
[3] = target: T2, anti-CD28 scFv (VH - linker 1 - VL) (biotinylated (site not stated)); assay: phage ELISA; biotinylated anti-CD28 scFv on neutravidin plate, clonal phage supernatant, anti-M13-HRP;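 further: before the phage were added, wells were pre-incubated with soluble CD28 protein in blocking buffer, or with blocking buffer alone, and were not washed in between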
[4] = target: T2, anti-CD28 scFv (VH - linker 1 - VL); assay: phage ELISA as above; wells pre-incubated with soluble CD28 (competitor)
Protocol: Clonal phage were harvested as crude supernatants and screened via standard enzyme linked immunosorbent assays (ELISAs). […] Prior to the addition of clonal phage, wells were incubated with blocking buffer and CD28 soluble protein or blocking buffer alone. Without washing or aspirating, clonal phage supernatants were then added to the wells and incubated for a short time. Wells were then washed followed by detection of bound phage using a horse radish peroxidase conjugated anti-M13 antibody.

T2 sequence (scFv, as listed by the source): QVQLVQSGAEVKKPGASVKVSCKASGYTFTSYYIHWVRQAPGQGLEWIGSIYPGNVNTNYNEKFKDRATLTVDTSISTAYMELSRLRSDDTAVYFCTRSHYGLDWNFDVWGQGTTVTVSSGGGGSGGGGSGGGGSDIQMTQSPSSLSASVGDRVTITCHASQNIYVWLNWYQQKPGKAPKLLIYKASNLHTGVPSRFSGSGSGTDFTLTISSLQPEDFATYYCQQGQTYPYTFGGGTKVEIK

B1: Peptide-261 (peptide)
peptide: YFVQCRPAWMCEGF
notes: From the Peptide-180 optimisation phage library
IC50 (PSMA Fab [1]): 1300 nM

VGKLCVPEWMCVGL [Peptide-217]
IC50 (PSMA Fab [2]): 2490 nM

DLRLCKPAWMCYFI [Peptide-223]
IC50 (PSMA Fab [2]): 1470 nM

DLRLCKPAWMCDFI [Peptide-231]
IC50 (PSMA Fab [2]): 1270 nM

ISKWCIPEWMCTSP [Peptide-237]
IC50 (PSMA Fab [2]): 2700 nM

WEKLCTPAWMCVGF [Peptide-214]
IC50 (PSMA Fab [2]): 3540 nM

LEKTCIPTWMCVGF [Peptide-234]
IC50 (PSMA Fab [2]): 2080 nM

B2: Peptide-269 (peptide)
peptide: EEPLCRPVWMCEGF
notes: as for B1
IC50 (PSMA Fab [1]): 9140 nM

B3: Peptide-265 (peptide)
peptide: AEVKCIPQWMCQGF
notes: as for B1
IC50 (PSMA Fab [1]): 1780 nM

EGIRCTPIWMCEGF [Peptide-224]
IC50 (PSMA Fab [2]): 1880 nM

MDWCPRYLWLECFN [Phage-354 clonal phage peptide MDWCPRYLWLECFN]
CD28 scFv signal [3]: 1.69 | CD28 scFv signal in presence of CD28 [4]: 0.368

B4: Peptide-278 (peptide)
peptide: PEHLCLPRWMCEGF
notes: as for B1
IC50 (PSMA Fab [1]): 2400 nM

B5: Peptide-273 (peptide)
peptide: LEPLCVPRWMCVGF
notes: as for B1
IC50 (PSMA Fab [1]): 900 nM

MDWCPRFLWNECFY [Phage-338 clonal phage peptide MDWCPRFLWNECFY]
CD28 scFv signal [3]: 2 | CD28 scFv signal in presence of CD28 [4]: 0.287

B6: Peptide-262 (peptide)
peptide: IVPLCKPAWMCKLF
notes: as for B1
IC50 (PSMA Fab [1]): 1300 nM

MDWCPWFLWNECFN [Phage-350 clonal phage peptide MDWCPWFLWNECFN]
CD28 scFv signal [3]: 1.77 | CD28 scFv signal in presence of CD28 [4]: 0.279

EFKWCIPSWMCHET [Peptide-228]
IC50 (PSMA Fab [2]): 1920 nM

IDWCPLHLWHECYH [Phage-353 clonal phage peptide IDWCPLHLWHECYH]
CD28 scFv signal [3]: 1.69 | CD28 scFv signal in presence of CD28 [4]: 0.182

IDKLCIPFWMCENL [Peptide-221]
IC50 (PSMA Fab [2]): 2130 nM

LEKLCIPAWMCEWL [Peptide-215]
IC50 (PSMA Fab [2]): 2940 nM

MHWCPRHLWSECFN [Phage-361 clonal phage peptide MHWCPRHLWSECFN]
CD28 scFv signal [3]: 1.43 | CD28 scFv signal in presence of CD28 [4]: 0.478

B7: Peptide-264 (peptide)
peptide: VQIQCRPAWMCLGF
notes: as for B1
IC50 (PSMA Fab [1]): 1140 nM

MDWCPRTLWDQCFF [Phage-339 clonal phage peptide MDWCPRTLWDQCFF]
CD28 scFv signal [3]: 1.99 | CD28 scFv signal in presence of CD28 [4]: 0.314

MDWCPMYLWDECFF [Phage-356 clonal phage peptide MDWCPMYLWDECFF]
CD28 scFv signal [3]: 1.65 | CD28 scFv signal in presence of CD28 [4]: 0.178

VVKACIPTWMCQFV [Peptide-229]
IC50 (PSMA Fab [2]): 4070 nM

B8: Peptide-266 (peptide)
peptide: TAHHCKPAWMCTGF
notes: as for B1
IC50 (PSMA Fab [1]): 1810 nM

MDWCPIHLWYECFN [Phage-352 clonal phage peptide MDWCPIHLWYECFN]
CD28 scFv signal [3]: 1.73 | CD28 scFv signal in presence of CD28 [4]: 0.203

MDFCPRFLWHECFN [Phage-345 clonal phage peptide MDFCPRFLWHECFN]
CD28 scFv signal [3]: 1.91 | CD28 scFv signal in presence of CD28 [4]: 0.225

FEKWCTPPWMCSLF [Peptide-222]
IC50 (PSMA Fab [2]): 4160 nM

MDWCPRNLWHECFA [Phage-342 clonal phage peptide MDWCPRNLWHECFA]
CD28 scFv signal [3]: 1.97 | CD28 scFv signal in presence of CD28 [4]: 0.175

MDWCPMNLWHECFA [Phage-351 clonal phage peptide MDWCPMNLWHECFA]
CD28 scFv signal [3]: 1.74 | CD28 scFv signal in presence of CD28 [4]: 0.16

MDWCPRPLWHECFA [Phage-359 clonal phage peptide MDWCPRPLWHECFA]
CD28 scFv signal [3]: 1.44 | CD28 scFv signal in presence of CD28 [4]: 0.138

MDWCPRHLWDECFN [Phage-341 clonal phage peptide MDWCPRHLWDECFN]
CD28 scFv signal [3]: 1.98 | CD28 scFv signal in presence of CD28 [4]: 0.268

MAWCPWYLWDECFN [Phage-348 clonal phage peptide MAWCPWYLWDECFN]
CD28 scFv signal [3]: 1.81 | CD28 scFv signal in presence of CD28 [4]: 0.267

FVPLCKPAWMCSFV [Peptide-218]
IC50 (PSMA Fab [2]): 2850 nM

B9: Peptide-281 (peptide)
peptide: VNHWCVPTWMCAGF
notes: as for B1
IC50 (PSMA Fab [1]): 1020 nM

MDWCPRDLWTQCFF [Phage-343 clonal phage peptide MDWCPRDLWTQCFF]
CD28 scFv signal [3]: 1.93 | CD28 scFv signal in presence of CD28 [4]: 0.119

B10: Peptide-272 (peptide)
peptide: LHVYCVPEWMCAGF
notes: as for B1
IC50 (PSMA Fab [1]): 1920 nM

MDWCPRLLWHECFN [Phage-357 clonal phage peptide MDWCPRLLWHECFN]
CD28 scFv signal [3]: 1.6 | CD28 scFv signal in presence of CD28 [4]: 0.109

MDWCPRILWHECFS [Phage-362 clonal phage peptide MDWCPRILWHECFS]
CD28 scFv signal [3]: 1.39 | CD28 scFv signal in presence of CD28 [4]: 0.174

MDWCPMFLWHECFS [Phage-360 clonal phage peptide … (as printed)]
CD28 scFv signal [3]: 1.44 | CD28 scFv signal in presence of CD28 [4]: 0.193

B11: Peptide-276 (peptide)
peptide: ITPICKPAWICSGF
notes: as for B1
IC50 (PSMA Fab [1]): 3460 nM

B12: Peptide-280 (peptide)
peptide: TTHVCIPSWMCSGF
notes: as for B1
IC50 (PSMA Fab [1]): 6650 nM

B13: Peptide-287 (peptide)
peptide: PERLCTPPWMCLGF
notes: as for B1
IC50 (PSMA Fab [1]): 2220 nM

LEKLCKPAWMCVNF [Peptide-238]
IC50 (PSMA Fab [2]): 1550 nM

LTKLCIPDWMCSEF [Peptide-226]
IC50 (PSMA Fab [2]): 2680 nM

MDWCPKPLWHVCFA [Phage-337 clonal phage peptide MDWCPKPLWHVCFA]
CD28 scFv signal [3]: 2.02 | CD28 scFv signal in presence of CD28 [4]: 0.152

FEKLCVPKWMCEGI [Peptide-220]
IC50 (PSMA Fab [2]): 1570 nM

MDWCPRHLWHACFS [Phage-346 clonal phage peptide MDWCPRHLWHACFS]
CD28 scFv signal [3]: 1.83 | CD28 scFv signal in presence of CD28 [4]: 0.167

LDWCPRHLWALCFN [Phage-349 clonal phage peptide LDWCPRHLWALCFN]
CD28 scFv signal [3]: 1.78 | CD28 scFv signal in presence of CD28 [4]: 0.24

MSWCPIDLWSECFA [Phage-340 clonal phage peptide MSWCPIDLWSECFA]
CD28 scFv signal [3]: 1.99 | CD28 scFv signal in presence of CD28 [4]: 0.148

VLKWCRPAWMCEVL [Peptide-216]
IC50 (PSMA Fab [2]): 2910 nM

B14: Peptide-279 (peptide)
peptide: YERACIPNWICEGF
notes: as for B1
IC50 (PSMA Fab [1]): 5180 nM

MDWCPRHLWVHCFS [Phage-344 clonal phage peptide MDWCPRHLWVHCFS]
CD28 scFv signal [3]: 1.91 | CD28 scFv signal in presence of CD28 [4]: 0.173

MNWCPMHLWAECFN [Phage-363 clonal phage peptide MNWCPMHLWAECFN]
CD28 scFv signal [3]: 1.39 | CD28 scFv signal in presence of CD28 [4]: 0.14
